Test results reported in paper PMC8118686, “Identification of a RAD52 Inhibitor Inducing Synthetic Lethality in BRCA2-Deficient Cancer Cells” (Frontiers in Pharmacology, 2021).

Molecular target: the molecule itself
Assay: cross-linking; called EMSA by the paper: 1 uM 6His-RAD52 in 25 mM HEPES pH 7.5, 1 mM DTT, 10 mM MgCl2, 150 mM NaCl, 0.1 mg/ml BSA, 37 °C; with or without 400 uM 50-nt ssDNA oligo and 100 uM C791-0064; 0.1% glutaraldehyde 3 min; 4-20% SDS-PAGE, Western blot with anti-Histag

B1: Human 6His-RAD52 protein (natural protein, UniProt P43351 1-418, looked up)
chain: MSGTEEAILGGRDSHPAAGGGSVLCFGQCQYTAEEYQAIQKALRQRLGPEYISSRMAGGGQKVCYIEGHRVINLANEMFGYNGWAHSITQQNVDFVDLNNGKFYVGVCAFVRVQLKDGSYHEDVGYGVSEGLKSKALSLEKARKEAVTDGLKRALRSFGNALGNCILDKDYLRSLNKLPRQLPLEVDLTKAKRQDLEPSVEEARYNSCRPNMALGHPQLQQVTSPSRPSHAVIPADQDCSSRSLSSSAVESEATHQRKLRQKQLQQQFRERMEKQQVRVSTPSAEKSEAAPPAPPVTHSTPVTVSEPLLEKDFLAGVTQELIKTLEDNSEKWAVTPDAGDGVVKPSSRADPAQTSDTLALNNQMVTQNRTPHSVCHQKPQAKSGSWDLQTYSADQRTTGNWESHRKSQDMKKRKYDPS
notes: RAD52, human; The size of the oligomer is not measured here; heptamer is only cited
  binding result: binds
